Each block holds one molecule with its values, some of them ahead of it.
Experiments:
[1] = Isoelectric focusing (PhastSystem), pI of purified protein; format: physicochemical; conditions: IEF gel
Experimental: The sample was dissolved in water and applied to a Superdex 75 HR 10/30 gel filtration column equilibrated with 20 mM sodium phosphate pH 6.0, containing 0.15 M NaCl. Fractions were collected and those containing endoglucanase activity were combined. The protein eluate was judged to be pure by SDS-polyacrylamide gel electrophoresis and the molecular mass was evaluated on the basis of molecular mass standards (prestained SDS-PAGE standards, Broad Range, Bio-Rad) to be 54 kDa. The pI of the purified protein, designated as Ct EG—54 was determined with PhastSystem (Pharmacia) to be ca 5.5.
The sample was applied to a Sephacryl S-100 HR 26/60 gel filtration column equilibrated with 50 mM sodium acetate buffer pH 5.0, containing 0.05 M NaCl. The protein fraction containing endoglucanase activity was eluted from the column with a retention volume corresponding to a molecular weight of 16 kDa. Collected fractions were combined, concentrated and gel filtration was repeated. The protein eluate was judged to be pure by SDS-polyacryl amide gel electrophoresis and the molecular weight was evaluated to be 28 kDa. The pI of the purified protein, designated as Ta EG—28, was determined in an IEF gel (PhastSystem, Pharmacia) to be about 3.5. The specific activity of Ta EG—28 at 50° C. was determined to be 4290 nkat/mg (procedure of IUPAC 1987, using CMC as substrate).
The active material from the anion exchange chromatography was applied to a Sephacryl S-300 HR 26/60 column equilibrated with 20 mM sodium phosphate pH 6.5, containing 0.15 M NaCl. The protein with β-glucosidase activity was eluted with a retention volume corresponding to a molecular weight of 243 kDa. The protein was judged to be pure by SDS-polyacrylamide gel electrophoresis and the molecular weight was evaluated to be 101 kDa. The pI of the purified protein, designated as At βG—101, was determined in an IEF gel (PhastSystem, Pharmacia) to be in the area of 5.6-4.9. The specific activity of At βG—101 at 50° C. was determined to be 1100 nkat/mg (using 4-nitrophenyl-β-D-glucopyranoside as substrate, Bailey and Linko, 1990).
The active material from the cation exchange chromatography was applied to a Sephacryl S-300 HR 26/60 column equilibrated with 20 mM sodium phosphate pH 7.0, containing 0.15 M NaCl. The protein with β-glucosidase activity was eluted with a retention volume corresponding to a molecular weight of 294 kDa. […] The protein was judged to be pure by SDS-polyacrylamide gel electrophoresis and the molecular weight was evaluated to be 81 kDa, representing most likely the monomeric form of the protein. […] The specific activity of the purified protein, designated as Ta βG—81, at 50° C. was determined to be 600 nkat/mg using 4-nitrophenyl-β-D-glucopyranoside as substrate (Bailey and Linko, 1990). […]

[2] = Hydrolysis with endoglucanase preparations, corn stover; format: biochemical; conditions: 48 h, 45° C., pH 5.0
Experimental: (§1) The preparations containing the endoglucanases were compared in hydrolysis studies mixed with the purified CBH/Cel7 and CBH/Cel6 enzymes on several pre-treated substrates. Culture filtrates of T. reesei, containing different cloned endoglucanase enzymes were obtained as described in Example 19. The enzymes were enriched by removing thermolabile proteins from the mixtures by a heat treatment (60° C., 2 h, pH 5) and the supernatant was used for the hydrolysis studies. In addition, pure T. reesei cellulases (purified as described by Suurnäkki et al., 2000) were used in the enzyme mixtures. The endoglucanases used in the experiment were:
Steam exploded corn stover fibre (steam pre-treatment at 210° C. for 5 min), dry matter 31.0% (SECS).
(§2) The endoglucanases to be studied (dosage 840 nkat/g dry matter, based on endoglucanase activity against HEC according to IUPAC, 1987) were used either with cellobiohydrolases of T. reesei (CBHI/Cel7A, 8.1 mg/g d.m. and CBHII/Cel6A, 2.0 mg/g d.m.) or with Thermoascus aurantiacus Cel7A with genetically attached CBD of T. reesei (10.1 mg/g d.m.). Purified (Suurnäkki et al., 2000) EGI (Cel7B) and EGII (Cel5A) of T. reesei were also included in the experiments for comparison. All mixtures were supplemented with additional β-glucosidase from Novozym 188 (to make the total β-glucosidase dosage 560 nkat/g d.w., the relatively high dosage was used to compensate the differences in the background activities of the different EG preparations). Triplicate tubes were incubated in mixing at 45° C. for 48 h and reference samples with inactivated enzymes and corresponding substrates were prepared. The release of hydrolysis products was measured as reducing sugars with DNS method using glucose as standard (Table 31).

[3] = Hydrolysis with endoglucanase preparations, spruce; format: biochemical; conditions: 48 h, 45° C., pH 5.0
Experimental: as §1
Washed steam pre-treated spruce fibre (impregnation with 3% SO2 for 20 min, followed by steam pre-treatment at 215° C. for 5 min), dry matter 25.9% (SPRUCE).
as §2

[4] = Hydrolysis with CBH enzyme mixtures, spruce; format: biochemical; conditions: additional enzymes EGII, bG; 48 h, 45° C., pH 5.0
Experimental: (§3) The performance of the purified recombinant cellobiohydrolases was evaluated in the hydrolysis studies with purified T. reesei enzymes. Hydrolysis was carried out with controlled mixtures of purified enzymes on several pre-treated substrates. […] In addition, pure T. reesei cellulases (purified as described by Suurnäkki et al., 2000) were used in the enzyme mixtures. The cellobiohydrolases used in the experiment were:
(§4) Each CBH/Cel7 to be tested (dosage 14.5 mg/g dry matter of substrate) was used either together with EGII/Cel5A of T. reesei (3.6 mg/g) or with a mixture containing T. reesei EGI/Cel7B (1.8 mg/g), EGII/Cel5A (1.8 mg/g), xylanase pI 9 (Tenkanen et al. 1992) (5000 nkat/g) and acetyl xylan esterase (AXE) (Sundberg and Poutanen, 1991) (250 nkat/g). All mixtures were supplemented with additional β-glucosidase from a commercial enzyme preparation Novozym 188 (176 nkat/g d.w.). Triplicate tubes containing the enzyme mixture and 10 mg (dry matter)/ml of the substrate suspended in 0.05 M sodium acetate were incubated in mixing by magnetic stirring at 45° C. for 48 h. Reference samples with inactivated enzymes and corresponding substrates were also prepared. The release of hydrolysis products was measured as reducing sugars with DNS method using glucose as standard (Table 30).
Washed steam pre-treated spruce fibre (impregnation with 3% w/w SO2 for 20 min, followed by steam pre-treatment at 215° C. for 5 min), dry matter 25.9% (SPRUCE).

[5] = Hydrolysis with CBH enzyme mixtures, corn stover; format: biochemical; conditions: additional enzymes EGII, bG, 48 h, 45° C., pH 5.0
Experimental: as §3, §4
Washed wet oxidized corn stover fibre (WOCS).

[6] = Hydrolysis with CBH enzyme mixtures, Avicel; format: biochemical; conditions: additional enzymes EGII, bG; 48 h, 45° C., pH 5.0
Experimental: as §3, §4
Crystalline cellulose (Avicel)

[7] = Hydrolysis with CBH enzyme mixtures, willow; format: biochemical; conditions: additional enzymes EGII, bG, 48 h, 45° C., pH 5.0
Experimental: as §3, §4
Washed steam pre-treated willow fibre (pre-treatment for 14 min at 210° C.), dry matter 23.0% (WILLOW).

[8] = with CBHI and CBHII of T. reesei
[9] = with T. aurantiacus Cel7A + Tr CBD

- Hydrolysis products as reducing sugars, SECS [2, 8]: 3.5 mg/mL
- Hydrolysis products as reducing sugars, SPRUCE [3, 8]: 3.8 mg/mL
- Hydrolysis products as reducing sugars, SPRUCE [3, 9]: 3.2 mg/mL
B2: EGII: endoglucanase II (Cel5A) of T. reesei, reference enzyme (protein, UniProt P07982 22-418, looked up)
Endoglucanase EG-II: QQTVWGQCGGIGWSGPTNCAPGSACSTLNPYYAQCIPGATTITTSTRPPSGPTTTTRATSTSSSTPPTSSGVRFAGVNIAGFDFGCTTDGTCVTSKVYPPLKNFTGSNNYPDGIGQMQHFVNEDGMTIFRLPVGWQYLVNNNLGGNLDSTSISKYDQLVQGCLSLGAYCIVDIHNYARWNGGIIGQGGPTNAQFTSLWSQLASKYASQSRVWFGIMNEPHDVNINTWAATVQEVVTAIRNAGATSQFISLPGNDWQSAGAFISDGSAAALSQVTNPDGSTTNLIFDVHKYLDSDNSGTHAECTTNNIDGAFSPLATWLRQNNRQAILTETGGGNVQSCIQDMCQQIQYLNQNSDVYLGYVGWGAGSFDSTYVLTETPTSSGNSWTDTSLVSSCLARK

- Hydrolysis products as reducing sugars, SPRUCE [4]: 3.7 mg/mL
- Hydrolysis products as reducing sugars, WOCS ([5]; EGI, XYL, AXE): 7.2 mg/mL
- Hydrolysis products as reducing sugars, WOCS [5]: 4.6 mg/mL
- Hydrolysis products as reducing sugars, Avicel [6]: 4.9 mg/mL
- Hydrolysis products as reducing sugars, WILLOW ([7]; EGI, XYL, AXE): 5.6 mg/mL
- Hydrolysis products as reducing sugars, WILLOW [7]: 3.7 mg/mL
B3: Ta Cel7A + Ct CBD: Thermoascus aurantiacus Cel7A fused to linker and CBD of Chaetomium thermophilum Cel7A, SEQ ID NO: 30 (protein)
chain: MYQRALLFSFFLAAARAQQAGTVTAENHPSLTWQQCSSGGSCTTQNGKVVIDANWRWVHTTSGYTNCYTGNTWDTSICPDDVTCAQNCALDGADYSGTYGVTTSGNALRLNFVTQSSGKNIGSRLYLLQDDTTYQIFKLLGQEFTFDVDVSNLPCGLNGALYFVAMDADGGLSKYPGNKAGAKYGTGYCDSQCPRDLKFINGQANVEGWQPSANDPNAGVGNHGSCCAEMDVWEANSISTAVTPHPCDTPGQTMCQGDDCGGTYSSTRYAGTCDPDGCDFNPYRQGNHSFYGPGQIVDTSSKFTVVTQFITDDGTPSGTLTEIKRFYVQNGKVIPQSESTISGVTGNSITTEYCTAQKAAFGDNTGFFTHGGLQKISQALAQGMVLVMSLWDDHAANMLWLDSTYPTDADPDTPGVARGTCPTTSGVPADVESQYPNSYVIYSNIKVGPIGSTVPGLDGSNPGNPTTTVVPPASTSTSRPTSSTSSPVSTPTGQPGGCTTQKWGQCGGIGYTGCTNCVAGTTCTQLNPWYSQCL

More lines, now with the values behind:

B1: Ct EG_54: endoglucanase of Chaetomium thermophilum ALKO4261, gene Ct cel7B, amino acid SEQ ID NO: 16 (protein)
chain: MTRKFALVPLLLGLASAQKPGNTPEVHPKITTYRCSHRQGCRPETNYIVLDSLTHPVHQLNSNANCGDWGNPPPRSVCPDVETCAQNCIMEGIQDYSTYGVTTSGSSLRLKQIHQGRVTSPRVYLLDKTEQQYEMMRLTGFEFTFDVDTTKLPCGMNAALYLSEMDATGARSRLNPGGAYYGTGYCDAQCFVTPFINGIGNIEGKGSCCNEMDIWEANSRSQSIAPHPCNKQGLYMCSGQECEFDGVCDEWGCTWNPYKVNVTDYYGRGPQFKVDTTRPFTVITQFPADQNGKLTSIHRMYVQDGKLIEAHTVNLPGYPQVNALNDDFCRATGAATKYLELGATAGMGEALRRGMVLAMSIWWDESGFMNWLDSGESGPCNPNEGNPQNIRQIEPEPEVTYSNLRWGEIGSTYKHNLKGGWTGRN
- pI of the purified protein [1]: ~5.5

B4: EGI: endoglucanase I (Cel7B) of T. reesei, reference enzyme (protein, UniProt P07981 23-459, looked up)
Endoglucanase EG-1: QQPGTSTPEVHPKLTTYKCTKSGGCVAQDTSVVLDWNYRWMHDANYNSCTVNGGVNTTLCPDEATCGKNCFIEGVDYAASGVTTSGSSLTMNQYMPSSSGGYSSVSPRLYLLDSDGEYVMLKLNGQELSFDVDLSALPCGENGSLYLSQMDENGGANQYNTAGANYGSGYCDAQCPVQTWRNGTLNTSHQGFCCNEMDILEGNSRANALTPHSCTATACDSAGCGFNPYGSGYKSYYGPGDTVDTSKTFTIITQFNTDNGSPSGNLVSITRKYQQNGVDIPSAQPGGDTISSCPSASAYGGLATMGKALSSGMVLVFSIWNDNSQYMNWLDSGNAGPCSSTEGNPSNILANNPNTHVVFSNIRWGDIGSTTNSTAPPPPPASSTTFSTTRRSSTTSSSPSCTQTHWGQCGGIGYSGCKTCTSGTTCQYSNDYYSQCL
- Hydrolysis products as reducing sugars, SECS [2, 8]: 4.6 mg/mL
- Hydrolysis products as reducing sugars, SECS [2, 9]: 4.2 mg/mL
- Hydrolysis products as reducing sugars, SPRUCE [3, 8]: 3.5 mg/mL

Reference: patent US8409836B2, “Treatment of cellulosic material and enzymes useful therein” (Roal Oy, priority 2005, dated 2013)
